Numbered stars: 1 amine (or outer) side, 2 acyl side, 3 side chain; on linkers, the order of the positions; unused ones are H or OH. Bridge positions count the residues as written; N and C are the ends. Square brackets hold non-standard residues; d marks the D form. Primed or numbered codes have the meaning given here. Ends that are not written are not given here. * marks the point of attachment. N‑ω hexylcarbamate = hexyl carbamate on the ω-nitrogen of the arginine side chain, CCCCCCOC(=O)*; mXylyl = xylyl linker from dibromoxylene joining the two cysteines; mXylyl″ = dibromoxylene linker (meta) joining the cysteines; 4‑BZA = 2-amino-3-(4-carbamimidoylphenyl)propanoic acid; des‑NH2 = missing amino-terminal amine group; pXylylene = c1cc(C[*:2])ccc1C[*:1]; NMeR = CN[C@@H](CCCNC(=N)N)C(=O)O; Phg(2-OMe)′ = not defined here; dPhg = N[C@@H](C(=O)O)c1ccccc1; Chg = N[C@H](C(=O)O)C1CCCCC1; Phg = N[C@H](C(=O)O)c1ccccc1; Tle = CC(C)(C)[C@H](N)C(=O)O; αMeP = C[C@@]1(C(=O)O)CCCN1; NMeS = CN[C@@H](CO)C(=O)O; 3‑BZA = not defined here; Orn = NCCC[C@H](N)C(=O)O; Ac5c = NC1(C(=O)O)CCCC1; Thp = NC1(C(=O)O)CCOCC1; Ac4c = NC1(C(=O)O)CCC1; Ac3c = NC1(C(=O)O)CC1; Aib = CC(C)(N)C(=O)O; Mpa = O=C(O)CCS
Target: Activated human plasma kallikrein (Enzyme Research Laboratories, HPKa 1303) (human, UniProt P03952 20-638)
Assay: cell-based or functional assay

Activated human plasma kallikrein (Enzyme Research Laboratories, HPKa 1303), sequence (P03952 20-638 limits assumed): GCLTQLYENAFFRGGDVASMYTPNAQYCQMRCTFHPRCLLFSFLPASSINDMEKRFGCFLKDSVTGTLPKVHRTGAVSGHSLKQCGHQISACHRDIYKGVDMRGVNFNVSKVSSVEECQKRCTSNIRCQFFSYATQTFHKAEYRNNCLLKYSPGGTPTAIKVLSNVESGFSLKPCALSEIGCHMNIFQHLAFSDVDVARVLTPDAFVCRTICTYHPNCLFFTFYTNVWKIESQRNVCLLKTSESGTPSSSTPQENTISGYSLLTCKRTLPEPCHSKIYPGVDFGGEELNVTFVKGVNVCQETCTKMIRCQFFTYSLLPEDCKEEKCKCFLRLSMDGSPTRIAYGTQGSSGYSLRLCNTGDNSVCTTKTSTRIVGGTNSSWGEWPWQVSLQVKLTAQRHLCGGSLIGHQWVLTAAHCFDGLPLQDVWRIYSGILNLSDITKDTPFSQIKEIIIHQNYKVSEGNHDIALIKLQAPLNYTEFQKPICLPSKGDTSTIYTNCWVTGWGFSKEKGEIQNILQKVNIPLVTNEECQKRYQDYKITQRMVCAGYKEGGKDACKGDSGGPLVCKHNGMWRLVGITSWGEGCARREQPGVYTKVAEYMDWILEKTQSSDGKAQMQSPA

Avg. IC50 [nM]	Binder
6.8	{des‑NH2}-C[αMeP][Chg]CR[Tle]-NH2 (linker 1-4 via mXylyl) [R2180]
> 3500	{des‑NH2}-CP[Chg]CRV-OH (linker 1-4 via mXylyl) [R2183]
15.2	[Mpa][Aib][Chg]CR[Tle]-NH2 (linker 1-4 via mXylyl) [R2176]
379	[Mpa][Ac5c]A[Chg]CRV-OH (linker 1-5 via mXylyl) [R2175]
3.2	CXAGCRV ([mXylyl(1,5)](des-NH2)C-(Cyclo-L)-A-Chg-CR-V-NHCH3) [R2178]
10.7	{des‑NH2}-CP[Chg]CR[Tle]-NH2 (linker 1-4 via mXylyl) [R2167]
82.1	{des‑NH2}-C[NMeS][Chg]CR[Tle]-NH2 (linker 1-4 via mXylyl) [R2165]
> 100000	CESICRV-NH2 (linker 1-5 via mXylyl″; not fully specified (residues 1, 6, N-terminus); printed as [mXylyl(1,5)](des-NH2)C-ESIC-r-V-NH2) [R2171]
3.4	{des‑NH2}-CP[Phg]CR[Tle]-NH2 (linker 1-4 via mXylyl) [R2188]
10.1	{des‑NH2}-CS[Chg]CR[Tle]-NH2 (linker 1-4 via mXylyl) [R2164]
2230	[Mpa]SICRV-NH2 (linker 1-4 via oXylyl) [R2161]
18.5	[Mpa][Ac4c][Chg]CR[Tle]-NH2 (linker 1-4 via mXylyl) [R2181]

Second part, the binder before the results:

Binder	Avg. IC50 [nM]
[Mpa][Ac3c][Chg]CR[Tle]-NH2 (linker 1-4 via mXylyl) [R2177]	34.1
{des‑NH2}-CP[dPhg]CR[Tle]-NH2 (linker 1-4 via mXylyl) [R2187]	> 4700
[Mpa][Thp]A[Chg]C[4‑BZA]V-NH2 (linker 1-5 via mXylyl) [R2166]	310
{des‑NH2}-CP[Chg]CR(N‑ω hexylcarbamate)[Tle]-NH2 (linker 1-4 via mXylyl) [R2186]	> 100000
Ac-[Chg]CRVPC-NH2 (linker 2-6 via mXylyl) [R2160]	> 100000
[Mpa][Aib]A[Chg]CR[Tle]LRYC-NH2 (linker 1-5-11 via 1,3,5‑Xylyl) [R2158]	2340
[Mpa]SICRV-NH2 (linker 1-4 via pXylylene; SMILES CC[C@H](C)[C@@H]1NC(=O)[C@H](CO)NC(=O)CCSCc2ccc(cc2)CSC[C@@H](C(=O)N[C@@H](CCCNC(=N)N)C(=O)N[C@H](C(N)=O)C(C)C)NC1=O) [R2156]	1530
[Mpa][Thp]A[Chg]C[4‑BZA](N‑hexylcarbamate)V-NH2 (linker 1-5 via mXylyl) [R2185]	> 100000
[Mpa][Aib]A[Chg]CR[Tle]LRYSE(PEG 40 kDa)-NH2 (linker 1-5 via mXylyl) [R2191]	5.5
[Mpa]SICRV-NH2 (linker 1-4 via mXylyl) [R2155]	66.3
[Mpa][Ac5c][Chg]CR[Tle]-NH2 (linker 1-4 via mXylyl) [R2168]	11.3
[Mpa][Ac5c]A[Chg]CR[Tle]-NH2 (linker 1-5 via mXylyl) [R2169]	1.9
[Mpa][Ac5c]A[Chg]CR[Tle]LRY-NH2 (linker 1-5 via mXylyl) [R2170]	2.1
[Mpa][Aib]A[Chg]CR-{2‑amino‑3,3‑dimethylbutan‑1‑ol} (linker 1-5 via mXylyl) [R2162]	466
[Mpa][Aib]A[Chg]CR[Tle]LRYSE-NH2 (linker 1-5 via mXylyl) [R2190]	0.511
{des‑NH2}-CP[Phg(2-OMe)′]CR[Tle]-NH2 (linker 1-4 via mXylyl) [R2189]	39.8
Ac-[Chg]CRVAC-NH2 (linker 2-6 via mXylyl) [R2159]	> 20100
[Mpa][Thp][Chg]CR[Tle]-NH2 (linker 1-4 via mXylyl) [R2182]	13.5
[Mpa]ESIC[Orn]V-NH2 (linker 1-5 via mXylyl) [R2172]	> 100000
{des‑NH2}-CP[Chg]CRV-NHMe (linker 1-4 via mXylyl) [R2184]	15.7
MCESIC[NMeR]V-NH2 (linker 2-6 via mXylyl) [R2163]	1960
[Mpa][Thp]A[Chg]C[3‑BZA]V-NH2 (linker 1-5 via mXylyl; reading uncertain; also: printed as [mXylyl(1,5)](des-NH2)C-AcPyr-A-Chg-C-(3-BZA)-V-NH2) [R2179]	> 8230
[Mpa][Aib]A[Chg]CR[Tle]PC-NH2 (linker 1-5-9 via 1,3,5‑Xylyl) [R2157]	> 14300
[Mpa][Ac5c][Chg]CK[Tle]-NH2 (linker 1-4 via mXylyl) [R2174]	870
